Assay: yeast display, Sf9 membrane polyspecificity reagent, FACS + sequencing; frameworks hold sequencing errors
Method in brief: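 Using colony PCR, genes from sorted yeast display clones were amplified, then sequenced on MiSeq at 2 × 250 and filtered by CDR length. The clones had been stained with 10% biotinylated, detergent-solubilized Sf9 membrane reagent for 1 hour at 4 °C and sorted by FACS into low and high (top ~1%) gates on anti-HA and streptavidin fluorescence. Polyreactivity labels come from the gate of origin.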

Sequence	polyreactivity (PSR sort gate)
QVQLVESGGGSVQAGGSLRFSCADSGFTFRKNAMGWYRQAPGKERELVAAISVSGGRTYYADSVKGRFTISRDNAKNTFYLQMNSLKPEETAVYYCAARRYVLVHKDDYWGQGTQVTVSS	high polyreactivity
QVQLVESGGGSVQAGGSLRLSCAASGRTFVRYAMGWYRQAPGKERELVAAITWSGGSTYYADSVKGRFTISRDNAKNTVYLQMNSLKPEDTAVFDCAAYPVQWGSLYDYWGQGTQVTVSS	high polyreactivity
QVQLVESGGGVDQAGGSLRLSCAASGSIFDLNARGGYRQAPGTERELVASIRDSGGRTYYADSVKGRFTISRDNAKNTVYLQMNSLKPEDTALYYCAAKPRRPGRGYWGQGTQVTVSS	high polyreactivity
QVQLVESGGGVVQAGGRLRLSCAASGFTFGSNDMGWYRQAPGKETELVAAIDGSGDTYYADSVKGRFTISRDNAKNTVDLQMNSLKPEDTAVYYCAADVIYWFSGEYDYWGQGTQVTVSS	low polyreactivity
QVQLVESGGGVVQAGGSLRFSCAASGRTFVVNAMGWYREAPGKERELVAAITRRGGITYYADSVKGRFTISRDNAKNSVYLQMNSLTPEDTAVYYCAADRSYYPDTRTTYGYNYWGQGTQVTVSS	low polyreactivity
QVQLVESGGGVVQAGGSLRISGAASGSIFPFNAMVWYRQAPGKERELVAAIRRSGGSTYYADSVQGRFTISRYNAKNTVDLQMNSLKPEATAVYYCATDPEWPLPAYYYWGQGTQVTVSS	low polyreactivity
QVQLVESGGGVVQAGGSLRLSCAASGFIFFINDMGWDRQAPGKERELVAAISWSGGSTYYADSVKGRFTISRDNAKNTVYLQMNSLIPEDTAVYYCNTDVPTAQYDYWGQGTQVTVSS	low polyreactivity
QVQLVESGGGVVQAGGSLRLSCAASGFIFGYYATGWYRQAPGKERELVDAFTRSGGSTRYADSVKGRFTISRDNAKNTVYLHMNSLKPEDSAVYYCNAYAPRQLYGYDYWGQGTQVTVSS	high polyreactivity
QVQLVESGGGVVQAGGSLRLSCAASGFTFWRYAMGWSRQAPGKDRELVAVITWSGTRTYYADSVKGRFTLSRDTAKITVYVQMNSLNPDAPAVYYCAAYITDVAGRAYDYWGQGTQVTVSS	high polyreactivity
QVQLVESGGGVVQAGGSLRLSCAASGITFSYYTMGWSRQAPGKERELVAAINWTGGDTYYADSVKGRFTISRDNAKNTVYLQMNSLNPEDTAVYYCNADYPYFYRFTAEYDYWGQGPQVTVSS	low polyreactivity
QVQLVESGGGVVQAGGSLRLSCAASGRICVRYAMGWYRQAPGKERELVAAISTRGGSTYYADSVKGRFTISRDNAKYTVYFQMNSLKPEDTAVYYCAARGVGPQPGYQRFNYWGQGTQVTVSS	high polyreactivity
QVQLVESGGGVVQAGGSLRLSCAASGRIFDIYAMGWYRQAPGKARELVAAITRGGSTYADSVKGRFTISRDNAKYTVYLQMNSLKPEVTAVYYCAASLYSYRSPYTFYYWGQGTQVTVSS	high polyreactivity
QVQLVESGGGVVQAGGSLRLSCAASGRIFHRYTMGWYRQARGKERELVAVISGLGGSTYYADSVKGRFTISRDNAKNTVYLQMNSLKPEDTAVYYCNRVGKYWSSDDSWGQGTQVTVSS	high polyreactivity
QVQLVESGGGVVQAGGSLRLSCAASGRIFRYTMGWYRQAPGKETELVADITRHGGSTYYADSVKGRFTISRDNAKNTVYLQMNSLKPEDTAVYYCAADHLSYRRRYEYWGQGTQVTVSS	low polyreactivity
QVQLVESGGGVVQAGGSLRLSCAASGRIFVSYAMGWYRQAPGKERELVASISGRGGSTYYADSVKGRFTISRDNAKNTVELQMNSLKPEDTAVYYCNKVARTRRITTYDYWGQGTQVTVSS	high polyreactivity
QVQLVESGGGVVQAGGSLRLSCAASGRIFVVYVMGWYRQAPGKEREFVAAITWGGGNTYYADSVKGRFTISRDNAKNTVYLQMNSLKPEDTAVYYCAAADGDDTTFRYDYWGQGTQVTVSS	low polyreactivity
QVQLVESGGGVVQAGGSLRLSCAASGRISRGNAMGWYRPAPGKEREFVAAISWSGDGTYYADSVKGRFTISRDNAKYTVYLQMNSLNPEDTAVYYCNTAVKVERDYWGQGTQVTVSS	low polyreactivity
QVQLVESGGGVVQAGGSLRLSCAASGRNFVYNAMGLYRQAPGKERELVAAIYSGGRTYYADSVKGRFTISRDNAKNTVYFKMYSLKPEDTAVYYCAARWYVLPTQTRPYYGYYYWGQGTQVTVSS	high polyreactivity
QVQLVESGGGVVQAGGSLRLSCAASGRNFYSYAMGLYTQAPGKERELVAAISKRGTSTYYADSVKGRFTISRDNAKNTVYLQMNSLKPEDTAVYYCAAVHWRYQYSLRYDYWGQGTQVTVSS	high polyreactivity
QVQLVESGGGVVQAGGSLRLSCAASGRTFKKYAMGWYRQAPGKEREFVARITYSAGSTYYADSVKGRFTISRDNAKNSVYLQMNSLKPEDTAVYYCASRFASSGPRWYSRHGEYDYWGQGTQVTVSS	low polyreactivity
QVQLVESGGGVVQAGGSLRLSCAASGRTFPLYAMGWYRQAPGKERELVAAIRTGGSTNYADSVKGRFTISRDNAKNTVYLQMNSLKPEDTAVYYCAAVQRTDRSAHYSWGQGTQVTVSS	low polyreactivity
QVQLVESGGGVVQAGGSLRLSCAASGRTFRPYAMGWYRQAPGKERELVAAIDSSGTSTYYADSVKGRFTISRDNAKNSVYLQMNSLKPEDTAVYYCAKAWPDHWYSRYDYWGQGTQVTVSS	low polyreactivity

Sequence	polyreactivity (PSR sort gate)
QVQLVESGGGVVQAGGSLRLSCAASGSIFNGYAMGWYRQAPGNEWELVAAISGNGGRTYYADSVKGRFTFSRDYAKNTVYLQMNSLKPEETADYYCNKVSGYYVDYWGQGSQVTVSS	high polyreactivity
QVQLVESGGGVVQAGGSLRLSCAASGSIFNRYAMGWYRQAPGKERELVAAISTHTGTTYYADSVKGRFTISRDNAKNTVYLQMNSLKPEDTAVYYCNAATYGGRYYYWGQGTQVTVSS	high polyreactivity
QVQLVESGGGVVQAGGSLRLSCAASGSIFQSYAMGWYRQAPGKERELVAAISYSGDGPFYADSVKGRFTISRDNAKKTVYLQMNSLKPEDTAVYYCAASSTGYGGSTYYYWGQGTQVTVSS	low polyreactivity
QVQLVESGGGVVQAGGSLRLSCAASGSIIWWYAMGWYRQAPGKERELVARMNKRSGSTYYADSVKGRFTISRDNAKNTVYLLRNSLKPEDTAVYYCAATWRSSGIAFFYWGQGTQVTLSS	high polyreactivity
QVQLVESGGGVVQAGGSLRLSCAASGSTCSWYVMGWYRQAPGKERELVASISRSGGSTYYADSVKGRFTISRDNAKNTVYLQMNSLKPEDTAVYYCAARQAGYSGRKLYYWAQGTQVTVSS	low polyreactivity
QVQLVESGGGVVQAGGSLRLSCAASGSTFDVYAMGWYRQAPGKERELVAAITSGGTTNYADSVKGRFTNSRDNAKNTVYLQMNSLKPEDTAVYYCAADSPWGGGYFVLYNYWGQGTQVTVSS	low polyreactivity
QVQLVESGGGVVQAGGSLRLSCAASGSTFGINCYGMYRQAPGKERELVAGISVSGGSTYYADSVKGRFTISRDNAKNTVYLKMNSLKPEDSAVYYCNRDTTVFLIYSYGYWGQGTQVTVSS	low polyreactivity
QVQLVESGGGVVQAGGSLRLSCAASGSTISPYAMGWYRPAPGKERELVAAISSGGSTSYADSVKGRFTISRDNAKNTVYLQMNSLKPEDTAVYYCHASSPGEVPVYDYDYWGQGTQVTVSS	low polyreactivity
QVQLVESGGGVVQAGGSLRLSCAASGSTLAGYAMGWYRPAPGKERELVAAIDWTGGSTTYADSVKGRFTISRDYAKNTVYLQMNCLKPDDTAVYSCNVVLGVNGDYWGQGCQVTVSS	low polyreactivity
QVQLVESGGGVVQAGGSLRLSCAASVSIFDDYAMGWYRQAPGKERELVASISRTGRTYYADSVKGRFTISRDNAKNTVYLQMNSLKPEDTAVYYCAATRYAPYRRYYYWGQGTQVTVSS	high polyreactivity
QVQLVESGGGVVQAGGSLRLSCAGSGRTFGPYAMGWYRQAPGKERELVAAIRYIDDSTFYADSVKGRFTISRDKAKNTVYLQMNSLKPEDTAVYYCAAQRRVVGRHGLSLIRYDYWGQGTQVTVTS	low polyreactivity
QVQLVESGGGVVQAGGSLRLTCAASGFTFSYNAMGWYRQAPGKERQLVAAISYSGGSTYYADSVKGRFTISRDTAKNTVYLQMNSLIPEHTAVYYCAAYSYYNYPNRGVYRGYYYWGQGTQGTVSS	high polyreactivity
QVQLVESGGGVVQARGSLRLSCAASGRIFYGYAMGWYRQAPGKERELVAAITRSSSTYYADSVKGRFTISRDNAKNTVYLQMNSLKPEDTAVYYCAAASRRSGASSWYDYWGQGTQVTVSS	high polyreactivity
QVQLVESGGGVVQARGSLRLSCAASGSPFWYHDMGWYRQAPGKERELVASISWSGGDTYYADSVKGRFTISRDNAKNTVYLQMNSLKTVDTAVYYCAAATLVSFWLDYWGEGTQVTVSS	low polyreactivity
QVQLVESGGPLVQAGGSLRLSCAASGRTIRYYTMGWYRQAPGKEREFVAAITSTGGTYYADSVKGRFTSSRDNAKNTVYLQRTSLKQEDTGVYYCAATFIQFVVNVQLYDYDYWGQGTQVTVSS	low polyreactivity
QVQLVESGGRIDQAGGRLRLSCAASGSIFDWYAMGWYRQAPGKERELVAAIDSSGSSTYYADSVKGRFTISRDNAKNTVYLQMNSLIPEDTAVYYCAADSDWIRYWFGSLYGSDYWGQGTQVSVSS	low polyreactivity
QVQLVESGGRIVQAGGSLRLSCAASGRTFPINAMGWYRQAPGKERELVASIRWTDGTTYYADSVKGRFTISRDNAKNTVYLQMNSLKPEDTAVYYCAADAEGSASKYDYWGQGTQVTVSS	low polyreactivity
QVQLVESGGRLVQAGCSLRLSCAASGFIFRLYAKGWYRQAPGKERELVAAISDDASTNYADSVKGRFTISRDNAKNTVYLQMNSLKPEDTAVYYCAAAVKRGYAQSFISDGYGYWGEGTQVTVSS	low polyreactivity
QVQLVESGGRLVQAGGRLRLSCAASGFIVYFNAMGWYIQAPGKERELVAAIRISGGSTYYADSVKGRFTISRDNAKNTVYLQMNSLKPEDTAVYYCATAPENYVSVGYDYWGQGTQVTVSS	low polyreactivity
QVQLVESGGRLVQAGGRLRLSCAASGRTFPIYVMGWYRQAQGKERELVATIDSDGTTNYADSVKGRFTISRDNAKNTVSLQMNSLKPEDTAVYYCAADSGWWEYCEDYWGQGTQVTVSS	low polyreactivity
QVQLVESGGRLVQAGGRLRLSGAASGSNFTDNAMGWYRQAPGKERELVAGISERGSSTYYADSVKGRFTISRDNAKNTVYLQMNSLKRVDTAVYYCSAEDVGRYWSSTHNWARGDYWGQGTQVTVSS	low polyreactivity
